# Values quoted from earlier work in publication PMC6375914.
# How the values were obtained:
# [1] = target: Ubc9 (Homo sapiens) (UniProt P63279); assay: ITC
# [2] = target: Ubc9 (Homo sapiens) (UniProt P63279); assay: SPR
# Sequence of UniProt P63279 (P63279 2-158): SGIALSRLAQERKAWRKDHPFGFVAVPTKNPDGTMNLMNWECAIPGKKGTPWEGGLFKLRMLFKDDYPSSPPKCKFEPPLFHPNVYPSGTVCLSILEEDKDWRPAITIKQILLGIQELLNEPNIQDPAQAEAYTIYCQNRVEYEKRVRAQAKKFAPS
substance,measurement,setting,value
SUMO1 (from UniProt P63165),Kd,[1],250 nM
same,Kd,[2],350 nM
